This test has as its target LC3B (UniProt Q9GZQ8). Description: NMR titration of labelled LC3B. Particulars: reference: unphosphorylated peptide P0; sites S34,S35.

These results are taken from PMC5430633, “Phosphorylation of the mitochondrial autophagy receptor Nix enhances its interaction with LC3 proteins” (Scientific Reports, 2017).

Consider “Nix (from UniProt O60238) pS34 pS35 peptide P2”, for which the KD result is reported as “stronger; reference ~100”.
